Legend:
cell-membrane bound CD39 = target: T1, cell-membrane bound CD39 (Homo sapiens, UniProt P49961); test: Inhibition of the enzymatic activity of cellular CD39 (cells not specified); format: cell-based
T1 sequence (P49961 1-510): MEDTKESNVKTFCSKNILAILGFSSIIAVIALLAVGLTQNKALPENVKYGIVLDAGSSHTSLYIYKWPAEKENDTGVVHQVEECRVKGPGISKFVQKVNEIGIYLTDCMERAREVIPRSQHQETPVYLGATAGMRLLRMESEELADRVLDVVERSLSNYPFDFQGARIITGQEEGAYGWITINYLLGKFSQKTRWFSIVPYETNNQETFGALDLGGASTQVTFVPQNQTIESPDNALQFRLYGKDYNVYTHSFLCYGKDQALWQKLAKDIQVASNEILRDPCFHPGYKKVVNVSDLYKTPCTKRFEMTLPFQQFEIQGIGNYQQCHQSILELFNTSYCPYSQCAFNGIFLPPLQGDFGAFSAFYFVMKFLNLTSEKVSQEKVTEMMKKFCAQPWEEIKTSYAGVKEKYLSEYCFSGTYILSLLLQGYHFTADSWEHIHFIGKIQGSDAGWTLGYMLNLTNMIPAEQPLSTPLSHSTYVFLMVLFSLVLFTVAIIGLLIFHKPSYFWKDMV
Description: The inhibition of the CD39 enzymatic activity in CD39-expressing cells by antibodies was evaluated using Cell Titer GIo™ (Promega, reference G7571) that allows assessment of ATP hydrolysis through use of a reagent that generates a luminescent signal proportional to the amount of ATP present. The assay was thus designed to permit assessment of the inhibition of ATP hydrolyzed by CD39 in the cell culture supernatant. Briefly, 5×10^4 Ramos human lymphoma cells, 5×10^3 human CD39−, cynomolgus CD39—and mouse CD39− expressing CHO cells, were incubated 1 hour at 37° C. with anti-CD39 antibodies from 30 μg/ml to 5×10^−4 μg/ml. Cells were then incubated with 20 μM ATP for 1 additional hour at 37° C. Plates were centrifuged for 2 min at 400 g and 50 μl cell supernatant are transferred in a luminescence microplate (white wells). 50 μl CellTiter-Glo™ Reagent (CTG) was added to the supernatant and emitted light was quantified after a 5 min incubation in the dark using a Enspire™ luminometer. Anti-CD39 antibody efficacy was determined by comparing emitted light in presence of antibody with ATP alone (maximal light emission) and ATP together with cells (minimal light emission).

[1] = target: T2, Human CD39-L3 (NTPDase3, ENTPD3) (Homo sapiens, UniProt O75355); test: ELISA titration on CD39-L3; format: binding
T2 sequence (O75355 1-529): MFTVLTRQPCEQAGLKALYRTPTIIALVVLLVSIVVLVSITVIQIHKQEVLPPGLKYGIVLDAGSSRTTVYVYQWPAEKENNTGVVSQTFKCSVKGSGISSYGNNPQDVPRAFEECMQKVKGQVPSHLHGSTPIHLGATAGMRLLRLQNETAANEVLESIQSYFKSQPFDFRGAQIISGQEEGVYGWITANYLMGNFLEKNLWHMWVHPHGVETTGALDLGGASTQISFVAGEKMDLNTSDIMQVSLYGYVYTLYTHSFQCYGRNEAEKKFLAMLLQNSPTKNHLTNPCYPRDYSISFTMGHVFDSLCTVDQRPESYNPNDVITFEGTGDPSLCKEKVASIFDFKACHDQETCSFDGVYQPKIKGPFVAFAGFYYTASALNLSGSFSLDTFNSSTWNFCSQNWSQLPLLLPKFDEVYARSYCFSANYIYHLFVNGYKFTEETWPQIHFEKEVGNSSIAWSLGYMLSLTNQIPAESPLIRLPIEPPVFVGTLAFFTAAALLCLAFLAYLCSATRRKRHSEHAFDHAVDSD
Description: Antibody I-394 was tested for binding to recombinant human CD39 isoforms (Rec-huCD39 isoforms) having amino acid sequences shown below were coated in 96-well plate in PBS 1X at 500 ng/ml or 1 μg/ml at 4° C. overnight. Wells were washed in TBS Tween® 20 (polysorbate 20), and further saturated 2H at RT in TBS Blocking buffer. Dose range concentration of primary antibody was incubated in TBS blocking buffer for 2 h at RT. Wells were washed in TBS Tween® 20 (polysorbate 20). […] Optical density was measured on Enspire™ at OD=450.

[2] = target: T3, CHO cells expressing murine CD39 (Mus musculus, UniProt P55772); test: Antibody titration on CHO-moCD39 by flow cytometry; format: binding; details: qualitative
T3 construct: expressed in transfected cells; host or cells: CHO
T3 sequence (P55772 1-510): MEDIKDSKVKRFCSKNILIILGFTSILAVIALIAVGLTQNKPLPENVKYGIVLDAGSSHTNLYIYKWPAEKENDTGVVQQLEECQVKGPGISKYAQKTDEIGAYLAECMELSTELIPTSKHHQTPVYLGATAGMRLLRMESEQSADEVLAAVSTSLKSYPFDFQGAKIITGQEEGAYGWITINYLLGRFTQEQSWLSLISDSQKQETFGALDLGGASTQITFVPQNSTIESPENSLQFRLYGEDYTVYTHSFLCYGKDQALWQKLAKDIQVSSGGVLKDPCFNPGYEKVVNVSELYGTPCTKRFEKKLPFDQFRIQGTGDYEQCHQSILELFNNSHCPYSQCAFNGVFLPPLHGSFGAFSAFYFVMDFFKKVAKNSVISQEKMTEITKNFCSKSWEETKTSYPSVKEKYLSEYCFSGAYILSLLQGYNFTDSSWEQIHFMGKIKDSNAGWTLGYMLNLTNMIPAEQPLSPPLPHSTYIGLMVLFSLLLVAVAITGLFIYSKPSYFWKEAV
Description: Antibody I-394 was tested in two repeated experiments for binding to CHO cells expressing human CD39, CHO cells expressing cynomolgus (Macaca fascicularis) CD39, CHO cells expressing murine CD39, and human Ramos lymphoma cells (ATCC™, reference CRL-1596). Cells were incubated with various concentration of unlabeled anti-CD39 antibody from 30 μg/ml to 5×10^−4 μg/ml, for 30 minutes at 4° C. After washes, cells were incubated with Goat anti-mouse H+L labeled secondary antibody for 30 min at 4° C.

inhibition of cell-membrane bound (cellular) CD39 ATPase activity (cell-membrane bound CD39; qualitative): inhibit cell-membrane bound CD39
binding to cells expressing murine CD39 (CHO-moCD39) [2]: but not to cells expressing murine CD39
Substance: I-394: anti-CD39 antibody, VH SEQ ID NO: 6, VL SEQ ID NO: 7, human IgG1 Fc with L234A/L235E/G237A/A330S/P331S
potency and maximal inhibition of cellular CD39 compared to BY40 (cell-membrane bound CD39; FIG. 2A): greater potency and maximal inhibition of cellular CD39 compared to BY40
binding to CD39-L3 in ELISA [1]: not to any of the isoforms CD39-L1, -L2, -L3 or -L4
